Data as given in patent US20230071609A1 (Genentech, published 2023).

T1: APOL6-myc-FLAG (human, UniProt Q9BWW8 1-343)
T1 construct: whole, on cells; In fixed, permeabilized transfected COS cells; untagged APOL6 in the western blots; not shown: C-terminal myc-FLAG tag
T1 sequence (looked up): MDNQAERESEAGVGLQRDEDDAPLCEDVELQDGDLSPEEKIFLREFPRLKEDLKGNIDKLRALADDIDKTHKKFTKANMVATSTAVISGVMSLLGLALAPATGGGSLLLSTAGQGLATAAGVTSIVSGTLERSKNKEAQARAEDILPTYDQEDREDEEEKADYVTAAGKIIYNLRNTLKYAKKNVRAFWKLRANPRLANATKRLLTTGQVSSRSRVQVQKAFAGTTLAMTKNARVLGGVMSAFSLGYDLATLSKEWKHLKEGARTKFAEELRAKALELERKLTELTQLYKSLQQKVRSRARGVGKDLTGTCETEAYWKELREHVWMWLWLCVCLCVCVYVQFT

T2: untagged APOL1-G0, KIK variant, transiently expressed (COS cells) (human, UniProt O14791 29-398)
T2 construct: Origene SC109941 clone with E150K, M228I, R255K
T2 chain: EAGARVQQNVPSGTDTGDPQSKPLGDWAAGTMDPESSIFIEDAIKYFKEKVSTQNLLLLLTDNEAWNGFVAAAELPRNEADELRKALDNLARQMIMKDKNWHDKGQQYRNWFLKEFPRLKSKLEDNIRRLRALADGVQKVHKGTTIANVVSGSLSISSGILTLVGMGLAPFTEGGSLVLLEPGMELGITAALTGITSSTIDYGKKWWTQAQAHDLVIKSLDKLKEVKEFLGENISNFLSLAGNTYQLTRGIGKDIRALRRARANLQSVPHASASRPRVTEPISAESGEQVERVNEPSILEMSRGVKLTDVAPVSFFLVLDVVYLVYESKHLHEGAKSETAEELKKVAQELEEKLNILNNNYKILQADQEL

T3: circulating APOL1 in normal human serum (human, UniProt O14791 28-398)
T3 construct: mature; Serum of healthy volunteers; lipoprotein-associated; also called serum APOL1; HDL APOL1
T3 sequence (looked up): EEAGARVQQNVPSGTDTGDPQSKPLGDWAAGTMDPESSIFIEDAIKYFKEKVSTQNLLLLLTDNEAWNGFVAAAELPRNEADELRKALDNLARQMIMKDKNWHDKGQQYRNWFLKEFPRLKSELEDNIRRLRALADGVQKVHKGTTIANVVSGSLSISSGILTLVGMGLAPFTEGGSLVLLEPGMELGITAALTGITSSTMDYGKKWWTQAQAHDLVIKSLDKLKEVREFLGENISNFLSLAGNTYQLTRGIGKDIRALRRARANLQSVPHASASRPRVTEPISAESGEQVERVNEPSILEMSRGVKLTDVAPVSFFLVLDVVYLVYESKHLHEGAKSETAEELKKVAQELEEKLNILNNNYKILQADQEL

T4: endogenous human APOL1 (wild-type immortalized podocytes; also JHH-1 cells, kidney and liver tissue) (human, UniProt O14791 28-398)
T4 construct: whole, on cells; Cell or tissue and permeabilization are told under assay; also called podocyte APOL1; endogenous APOL1
T4 sequence (looked up): T3 sequence (looked up)

B1: rabbit monoclonal antibody 5.17H8 (antibody, V domains shown)
VH: QSLEESGGRLVTPGTPLTLTCTVSGIDLSSYAMGWVRQAPGKGLEWIGIISSSGSTHYASWAKGRFTISKTSTTVDLKITSPTTEDTATYFCARARAGSTYYTGYYFNLWGQGTLVTVSS
VL: AIEMTQTASPVSAAVGGTVTINCQASESIYSNLAWYQQKPGQRPKLLIYGASTLESGVPSRFKGSGSGTEYTLTISDLECDDAATYYCQSGYYGISAINNAFGGGTEVVVKG
notes: Rabbit mAb (Method #5), recombinant; also called rabmab 5.17H8
B2: antibody 4.2C4 (antibody, V domains shown)
VH: QVQLQQSGPELVKPGASVKMSCKASGYTFTDYVISWVKQRTGQGLEWIGEMFPGSGTTYYTEKFRGKATLTADKSSNTAYMQLSSLTSEDSAVYFCARGTTADYWGQGTTLTVSS
VL: ENVLTQSPAIMSASLGEKVTMSCRASSSVNYMYWYQQKSDASPKLWIYYTSNLAPGVPARFSGSGSGNSYSLTISSMEGEDAATYYCQQFTSSPYTFGGGTKLEIKR
notes: Mouse mAb, cloned as murine IgG2a LALAPG
B3: antibody 3.2C11 (antibody, V domains shown)
VH: QVQLQQSGAELVRPGASVKLSCKALGYTFTDYEIHWVKQTPVHGLEWIGGIHPGNGGTAYNPKFKGKATLTADTSSSTASMELSSLTSEDSAVYYCTDWVDYWGQGTTLTVSS
VL: DVVVTQTPLSLPVNFGDQVSISCRSSQSLVNRHGITYLSWYLHKPGQSPQLLIYEISNRFSGVPDRFSGSGSGTDFTLKISTIKPEDLGMYYCFQGTHQPFTFGGGTKLEIKR
notes: as for B2
B4: antibody 3.4G10 (antibody, V domains shown)
VH: DVQLQESGPDLVKPSQSLSLTCTVTGYSITSGESWHWIRHFPGNELEWMGFIHYSGSANYNPSLKSRISITRDTSKNQFFLQLLSVTTDDTATYYCARSVYNYDGAWFPYWGQGTLVTVSA
VL: QIVLTQSPVIMSASPGERVTLTCSASSSVSSSYLNWYQLKPGSSPKVWIYRTSNLASGVPARFSGSGSGTSYSLTISSMEAEDAASYFCHQWSAYPPTFGGGTKLEIKR
notes: as for B2
B5: antibody 3.1C7 (antibody)
heavy: EVQLQQSGTVLSRPGASVKMSCKASGYTMTSYWMHWIKQRPGQGLEWIGAIYPGKSDIKYNQKFKDKAKLTAVTATSTAYMEINSLTNEDSAVYYCTNSIPFVYWGQGTLITVSAASTKGPSVYPLAPVCGDTTGSSVTLGCLVKGYFPEPVTLTWNSGSLSSGVHTFPAVLQSDLYTLSSSVTVTSSTWPSQSITCNVAHPASSTKVDKKIEPRGPTIKPCPPCKCPAPNAAGGPSVFIFPPKIKDVLMISLSPIVTCVVVDVSEDDPDVQISWFVNNVEVHTAQTQTHREDYNSTLRVVSALPIQHQDWMSGKEFKCKVNNKDLGAPIERTISKPKGSVRAPQVYVLPPPEEEMTKKQVTLTCMVTDFMPEDIYVEWTNNGKTELNYKNTEPVLDSDGSYFMYSKLRVEKKNWVERNSYSCSVVHEGLHNHHTTKSFSRTPGK
light: DIVMTQSPSSLTVTAGEKVTMSCKSSQSLLNSENQKKYLTWFQQKPGQPPKLLIYWTSTRYSGIPDRFTGSGSGTVFTLTISSVQADDLAVYYCQNDYSYPLTFGGGTKLEIKRADAAPTVSIFPPSSEQLTSGGASVVCFLNNFYPKDINVKWKIDGSERQNGVLNSWTDQDSKDSTYSMSSTLTLTKDEYERHNSYTCEATHKTSTSPIVKSFNRNEC
notes: Mouse mAb, cloned as murine IgG2a LALAPG; also called SRA-ID antibody 3.1C7

Columns and labels:
APOL6-myc-FLAG = target: T1, APOL6-myc-FLAG; assay: immunofluorescence on transfected COS cells; grade
Source text: COS cells were transfected as in FIG. 31A except APOL1 and APOL2 were also C-terminally myc-FLAG tagged. Overlays of APOL with epitope tags: either mouse anti-FLAG-M2 or mouse anti-myc 9E10 for anti-APOL1 rabmabs; or rabbit anti-Myc 71D10 in conjunction with mouse anti-APOL1. Signals indicate the two antibodies overlap (i.e. anti-APOL1 cross-reacts with that APOL); signals (epitope tag only) indicate no cross-reactivity. Alexa647 anti-rabbit or mouse were used for the tags to rule out the possibility that any colocalization was a bleed-through artifact. Sparsely transfected areas were imaged to permit evaluation of background staining in adjacent untransfected cells—DAPI nuclear staining identifies both untransfected and transfected cell nuclei. […] Note that none of the antibodies cross-reacted with the more distantly related APOL6. *, APOL2-myc-FLAG is presumably misfolded, since it is not as cross-reactive as untagged APOL2 (compare FIG. 31A) with several antibodies. Commercial antibodies are Sigma HPA018885, Epitomics EPR2907 (2) (Epito) and Proteintech 11486-2-AP (Ptech).
Cells were plated on LabTekII (Nalge Nunc 154534) slides and fixed at 70-100% confluency. For mAb screening, cells were fixed/permeabilized for 5 min in −20° C. methanol (EMD MX0485-6). For all other experiments, cells were fixed in 3% paraformaldehyde in PBS (EMS 15710) for 20 mins at room temperature, quenched with 50 mM NH₄Cl in PBS for 10 mins, then permeabilized with 0.1% TX-100 in PBS for 4 mins or for 1h in saponin buffer [0.4% saponin (Sigma S7900), 1% bovine serum albumin (BSA; Sigma A2153), 2% fetal bovine serum (Seradigm) in PBS]. First antibodies (stored sterile at 4° C.) were applied for 1 h at room temperature, at 1 μg/ml for screening on transfected cells or at subsequently optimized concentrations for detecting endogenous APOL1. After 3×10 min washes in PBS (for Methanol or TX-100 protocols) or saponin buffer (saponin protocol), secondary antibodies were applied at 1.88 μg/ml for 1 h at room temperature, washed 3× and mounted under No. 1.5 coverslips in ProLong Gold with DAPI (4′,6-diamidino-2-phenylindole; Life Technologies P36931).

[1] = target: T2, untagged APOL1-G0, KIK variant, …; assay: immunofluorescence on transfected COS cells, 1 µg/ml; grade
[2] = target: T3, circulating APOL1 in normal human serum; assay: summary of the Examples: trypanolysis blocking as proxy for serum APOL1
Experimental: The trypanolysis assay used herein to text specificity of antibodies for serum APOL1 is as follows. Trypanosoma brucei brucei were obtained from ATCC and cultured in HMI-9 media containing IMDM (Genentech), heat-inactivated (56° C. for 30 min) FBS (Seradigm IXL9/06807/GEN), 1% serum plus (Sigma 14008C), HMI-9 (Genentech) and 1% hypoxanthine (Genentech). Trypanosome lysis was performed by treating 1×10⁵ Trypanosomes with serial dilutions of NHS or recombinant APOL1 for 16 h in a total of 100 μl. Live cell read out was done by the Alamar Blue assay as per the manufacturer's protocol, (Thermo Fisher, DAL1100). Briefly 10 μl of Alamar Blue was added to each well, incubated at 37° C. for 4 h. Red fluorescence, indicating live trypanosomes, was measured on a SpectraMax® fluorimeter powered by SoftMAX® PRO with excitation at 530 nm and emission 590 nm. For the antibody blocking assay, 1% normal human serum was preincubated with 1-10 μg/ml of anti-APOL1 antibody or media at room temperature for 20 minutes followed by addition of trypanosomes. After 16 h, the Alamar Blue assay was performed as above and background values for media only were subtracted and % blocking calculated by normalizing to no antibody control.
Trypanosoma brucei brucei were obtained under MTA from ATCC and cultured in HMI-9 media containing IMDM (Genentech), heat-inactivated (56° C. for 30 min) FBS (Seradigm IXL9/06807/GEN), 1% serum plus (Sigma 14008C), HMI-9 (Genentech) and 1% hypoxanthine (Genentech). Trypanosome lysis was performed by treating 1×10⁵ Trypanosomes with serial dilutions of NHS or recombinant APOL1 for 16 h in a total of 100 μl. Live cell read out was done by the Alamar Blue assay as per the manufacturer's protocol (30) (Thermo Fisher, DAL1100). Briefly 10 μl of Alamar Blue was added to each well, incubated at 37° C. for 4 h. Red fluorescence, indicating live trypanosomes, was measured on a SpectraMax fluorimeter powered by SoftMAX PRO with excitation at 530 nm and emission 590 nm. For the antibody blocking assay, 1% normal human serum was preincubated with 1-10 μg/ml of anti-APOL1 antibody or media at room temperature for 20 mins followed by addition of trypanosomes.

[3] = target: T4, endogenous human APOL1 (wild-type …); assay: summary of the Examples: podocyte flow cytometry
Experimental: Cells were harvested with 5 mM EDTA in PBS, washed once with growth media and twice with PBS. Approximately 0.5×10⁶/m1 of cells resuspended in PBS were incubated with anti-APOL1 antibodies for 1 h on ice. Following two PBS washes, 2 μg/ml of Alexa488 anti-mouse or anti-rabbit (Invitrogen A11029 and A21206, respectively) was used for 1 h on ice for detection. Cells were washed twice in PBS and resuspended in PBS with 1 μg/ml propidium iodide. Signals were read in a FACSCalibur3 (Becton Dickinson), with the exception of FIG. 8A and FIG. 14, which used a FACSCelesta, and data was analyzed using FlowJo v8.4.5. Mean fluorescence intensities were plotted in PRISM v7 after subtraction of secondary antibody alone background. For low pH experiments, cells were incubated with the antibodies in the presence of PBS pH 7.0 or PBS pH 5.5 for an hour on ice and detected with secondary antibodies at neutral pH.

[4] = target: T3, circulating APOL1 in normal human serum; assay: cell-based or functional assay

| Binder | binding result (APOL6-myc-FLAG) | binding result [1] | binding result [2] | binding result [3] | IC50 of blocking of serum APOL1-mediated trypanolysis (Alamar Blue) [4] |
| --- | --- | --- | --- | --- | --- |
| B1 | no binding (tested: 1 µg/ml) | – | – | – | – |
| B2 | no binding (tested: 1 µg/ml) | binds | – | – | – |
| B3 | – | – | binds | – | – |
| B4 | – | – | binds | binds | – |
| B5 | no binding (tested: 1 µg/ml) | binds | – | – | 1 nM |
